Publication PMC4894983

What was measured:
[1] = system: CsrA-Strep (Campylobacter jejuni NCTC11168); assay: EMSA
[2] = molecular target: T1, CsrA-Strep (Campylobacter jejuni NCTC11168) (UniProt Q0P9F1); assay: EMSA
T1 sequence: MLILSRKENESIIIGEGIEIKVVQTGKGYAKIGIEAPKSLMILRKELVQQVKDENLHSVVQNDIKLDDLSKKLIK

| Substance | Kd [1] | binding [2] |
| --- | --- | --- |
| flaG leader | > 350 nM | – |
| flaA WT leader | 50 nM | – |
| flgI leader | > 350 nM | – |
| GGAAAUUAAAAUUUUAAAAAGGAAGUUAAAAUGUCAAAACCAUUAAAUGAAGAGAUUUUUGUUGAAUUUAAAAGUGAUCUAGCUGAAAGAAAAAAUGAAGUUUUGCUUCAAGUUUUAGA [Cj0040 mRNA] | – | binds |
| flaB leader | > 350 nM | – |
| GGAUUAUAACUAAGAUCAAGGAGGCAGAAAUGAUCAAUCCUAUACAACAAAGUUAUGUGGCAAAUACCGCAUUAAAUACAAAUAGAAUAGAUAAAG [flgM mRNA] | – | binds |
